Test results taken from article doi:10.1101/2025.01.07.631698.
Read-outs that look alike come from different tables or passages of the source.

Key:
[1] = target: microtubules polymerised from porcine tubulin (porcine) (UniProt P02550); assay: FRAP
[2] = target: microtubules polymerised from porcine tubulin (porcine) (UniProt P02550); assay: FRAP; remark: listed apart in the source

koff [1]: 1.07 s⁻¹
koff [2]: 0.26 s⁻¹
Substance: Anillin-GFP (full-length human anillin, isoform 2, 1087 amino acids) (from UniProt Q9NQW6-2 1-1087) (natural protein)
